Assay results from patent US20100272689A1, “Protease Having Algicidal Activity, Gene Encoding the Same and Algicidal Formulation Comprising the Same” (KOREA OCEAN RESEARCH & DEVELOPMENT INSTITUTE, priority 2007, published 2010).
Several values for one entry are separate records, joined by “and”; a condition that tells them apart may be missing. Equal entries are not always repeated.

Columns and labels:
[1] = tested on: gelatin; assay: Protease activity by electrophoresis on gelatin substrate gel; assay type: biochemical; settings: refolded protein, FIG. 7
Experimental: Protease activity of proteases obtained according to Example 6 was measured using electrophoresis on gelatin substrate gel [Park, H. I., J. Biol. Chem., 275:20540-20544, 2000].

[2] = Experimental: To observe protein processing of the protease having algicidal activity according to the present invention, analysis of protease activity was performed as the same method of Example 7 except 10476—8 protein (SEQ ID NO: 26) which was reacted at 4° C. for a week, and then that was confirmed by SDS-PAGE (FIG. 8).
[3] = tested on: gelatin; assay: Protease activity at various temperature and pH; assay type: biochemical
Experimental: 10476—7 protein (SEQ ID NO: 27) containing only mature protein was suspended with SDS in combination with stabilization by using EDTA and resistance to detergent, and refolded by dilution using buffer solution containing 50 mM Tris-HCl, 1 mM EDTA and 1% triton X-100 except SDS, and then protease activity was measured at various temperature and pH according to the method as described above [Park, H. I., J. Biol. Chem., 275:20540-20544, 2000]. The results are shown in FIG. 9 and FIG. 10, respectively.

[4] = tested on: gelatin; assay: Protease activity with zinc or calcium ion (gelatin, TCA supernatant); assay type: biochemical; settings: 0.1% gelatin, pH 8.0, 20° C., 2 hr
Experimental: Also, 5 μg of refolded protein was added to buffer solution containing 0.1% gelatin, 50 mM Tris-HCl (pH 8.0), 100 mM KCl and 1 mM zinc or calcium ion, incubated at 20° C. for 2 hr, and then 5% TCA solution (w/v) was added to the solution, followed by stand for 10 min on ice. After centrifugation for 5 min at 10,000 rpm, the protein was measured using the supernatant. Inhibition of protease activity by metal ions was measured by comparing with control group without metal ion.

[5] = tested on: Cochlodinium polykrikoides; assay: Algicidal activity by cell count after 24 hr (Lugol staining); assay type: cell-based; settings: 50 μl of protein (100 μg/ml), after 24 hr; for Cell number: ( ): standard deviation
Experimental: Organisms used as host for algicidal bacteria screen are Cochlodinium polykrikoides, Thalassiosira sp., Heterosigma akashiwo, Skeletonema costatum, Alexandrium sp., Gymnodium sp., Chaetoceros cuvisetus. Each algae cell was grown to log phase in F/2 broth (0.075 g NaNO3, 0.005 g NaH2PO4?H2O, 0.030 g Na2SiO3?9H2O, 1 ml F/2 trace metal solution, 1 ml F/2 vitamin solution and 1,000 ml aged seawater) [Stein, Handbook of phycological methods, Cambridge Univ. Press, 1973].
The cultured red tide organisms were diluted in F/2 broth to a final density of 0.05 (excitation wavelength=434 nm, emission wavelength=670 nm)on the fluorescent intensity using fluoro-spectrophotometer (Hitachi, Japan), and then 2.7 ml aliquots were dispensed into several test tubes (110 mm×10 mm) to prepare for the MPN (most probable number) method.
To measure algicidal activity of 10476—7 protein (SEQ ID NO:27), 50 μl of said protein (100 μg/ml) was added to the culture solutions of Cochlodinium polykrikoides, Thalassiosira sp., Heterosigma akashiwo, Skeletonema costatum, Alexandrium sp., Chaetoceros cuvisetus and Gymnodniium sp. which were prepared in Example 2. After 24 hr, said culture solutions were stained with 1% Lugol's iodine solution, and then the cell number was counted. Experimental groups with protease (experimental group 1 and 2) were compared with control group without protease in cell number and the degree of inhibition.
To check algicidal activity of proteins isolated Flavobacterium johnsoniae UW101 (ZP—01247095, SEQ ID NO: 4), Croceibacter atlanticus HTCC2559 (ZP—00951344, SEQ ID NO: 5), Leeuwenhoekiella blandensis MED217 (ZP—01059780, SEQ ID NO: 6) and Kordia algicida KAOT1—11562 (SEQ ID NO: 7), 50 μl of said protein (100 μg/ml) was added to the culture solutions of Cochlodinium polykrikoides, Thalassiosira sp., Heterosigma akashiwo, Skeletonema costatum, Alexandrium sp., Chaetoceros cuvisetus, and Gymnodium sp., which were prepared in Example 2. After 24 hr, said culture solutions were stained with 1% Lugol's iodine solution, and then the cell number was counted.
Experimental groups with protease (experimental group 1 and 2) were compared with control group without protease in cell number and the degree of inhibition.

Molecule	Protease activity [1]	Time until turned into mature protease by degradation of processing peptide [2] [days]	Temperature of optimal protease activity ([3]; FIG. 9)	pH of optimal protease activity ([3]; FIG. 10)	Effect of zinc ion on protease activity ([4]; FIG. 11)	Calcium ion concentration of maximal protease activity ([4]; FIG. 12) [mM]	The degree of inhibition (%) ([5]; experimental group 1)	Cell number ([5]; experimental group 1)	The degree of inhibition (%) ([5]; experimental group 2)	Cell number ([5]; experimental group 2)
10476—8: protein containing processing peptide and mature protein, without the signal peptide part (protein, listed as Kordia algicida, KAOT1_10476 of Kordia algicida OT-1 lacking signal peptide, protein containing processing peptide and mature protein, without the signal peptide part) VVDEEQDTAIGIPQDVLQKAQSLHFNTFDMQEASFEKPNGKIEEGYMMEGDIFFTRDQLMNMELGGDITSKQYRTNNLVSPGVITIIGYTGNNSNGLTTKMQTGLRWAVDNYNALNLSISFQLTFGTDYQNKDMVVYQVQGGAGGSAGFPSGGNPYKWVKINSGMAPYSNNVHEHVIGHEIGHSIGFRHSDYFSRQSCGQNSNEGSAGVGAIHIPGTPTGWDPTSLMNACFSSSEDGEFNGNDITALNFLY	showed protease activity	3								
10476—7: protein containing only mature protein, without signal peptide and processing peptide (protein, listed as Kordia algicida, KAOT1_10476 of Kordia algicida OT-1 lacking signal and processing peptide) QYRTNNLVSPGVITIIGYTGNNSNGLTTKMQTGLRWAVDNYNALNLSISFQLTFGTDYQNKDMVVYQVQGGAGGSAGFPSGGNPYKWVKINSGMAPYSNNVHEHVIGHEIGHSIGFRHSDYFSRQSCGQNSNEGSAGVGAIHIPGTPTGWDPTSLMNACFSSSEDGEFNGNDITALNFLY	showed protease activity		about 20 °C	7-8	inhibition of 10476—7 protein activity by zinc ion was confirmed	80 to 100	40.7	960(30) cell/ml and 940(60) cell/ml	30.0	1040(90) cell/ml and 900(110) cell/ml
